{"source": "patent US20160108118A1", "about": "(METABOLIC ENGINEERING LABORATORIES, published 2016)", "binders": {"B1": {"name": "anti-CXCL10 antibody 12D (whole IgG) (antibody, V domains shown)", "VH": "QVQLVQSGGGVVQPGRSLRLSCVASAFTFSRYGMHWVRQAPGKGLEWVALISYDGSSEYYADSVKGRFNISRDNSKNTVYLQMNSLRAEDTAVYYCVKDGLAAKLGHWGQGTLVTVSS", "VL": "QAPSLSVSPGQTANIICSGDNLRTKYVSWYQQKPGQSPLLVIYQDTRRPSGIPARFSGSNSGNTATLTISGTQTERESTYYCMTWDVDTTSMIFGGGTKLTVLG", "notes": "Whole-form IgG"}, "B2": {"name": "scFv-phage clone 9E (scFv)", "chain": "QVQLVESGGGVVQPGRSLRLSCAASGFTFSSYGMHWVRQAPGKGLEWVAVISYDGNNKYYVDSVKGRFTISRDNSKNTLYLQMNSLRSEDTAVYYCARDSGSYLDWYFDLWGRGTLVTVSSQPPSVSVAPGKTARIACGGGNIGDKSVHWYQQKPGQAPVLVIFYDSDRPSGIPKRLSGSNSGNTATLTISRVEAGDEGDYYCQVWDSSSDRPVFGGGTKLTVLG"}, "B3": {"name": "scFv-phage clone 10D (scFv)", "scFv": "QVQLVQSGGGVVQPGRSLRLSCAASGFTFSSYGMHWVRQAPGKGLEWVAVISYDGSNKYYADSVKGRFTISRDNSKNTLYLQMNSLRSEDTAVYYCARDKRAAFDIWGQGKMVTVSSGLGGLGGGGSGGGGSGGSSGVGSSYELTQAPSLSVSPGQTANIICSGDNLRTKYVSWYQQKPGQSPLLVIYQDTRRPSGIPARFSGSNSGNTATLTISGTQTERESTYYCMTWDVDTTSMIFGGGTKLTVL"}, "B4": {"name": "scFv-phage clone 12D (scFv)", "chain": "QVQLVQSGGGVVQPGRSLRLSCVASAFTFSRYGMHWVRQAPGKGLEWVALISYDGSSEYYADSVKGRFNISRDNSKNTVYLQMNSLRAEDTAVYYCVKDGLAAKLGHWGQGTLVTVSSQAPSLSVSPGQTANIICSGDNLRTKYVSWYQQKPGQSPLLVIYQDTRRPSGIPARFSGSNSGNTATLTISGTQTERESTYYCMTWDVDTTSMIFGGGTKLTVLG"}, "B5": {"name": "scFv-phage clone 10E (scFv)", "scFv": "QVQLVQSGGGVVQPGRSLRLSCAASGFTFNSYGMHWVRQAPGKGPEWVAVISYDGNSKYYADSVKGRFTISRDNSKTTLYLQMNSLRSEDTAVYYCARDSGSYLDWYFDLWGRGTLVTVSSGLGGLGGGGSGGGGSGGSSGVGSQFVLTQPPSVSGAPGQRVTISCTGSRSNFGAGHDVHWYQQLPGTAPKLLIYGNNNRPSGVPDRFSGSKSGTSASLAITGLQAEDEADYYCQSYDSRLGVVFGGGTKLTVL", "notes": "also called E10 scFv"}, "B6": {"name": "anti-CXCL10 antibody 9E (whole IgG) (antibody, V domains shown)", "VH": "QVQLVESGGGVVQPGRSLRLSCAASGFTFSSYGMHWVRQAPGKGLEWVAVISYDGNNKYYVDSVKGRFTISRDNSKNTLYLQMNSLRSEDTAVYYCARDSGSYLDWYFDLWGRGTLVTVSS", "VL": "QPPSVSVAPGKTARIACGGGNIGDKSVHWYQQKPGQAPVLVIFYDSDRPSGIPKRLSGSNSGNTATLTISRVEAGDEGDYYCQVWDSSSDRPVFGGGTKLTVLG", "notes": "Whole-form IgG"}, "B7": {"name": "anti-CXCL10 antibody 10E (whole IgG) (antibody, V domains shown)", "VH": "B6 VH with E6Q, S30N, L45P, N57S, V61A, N77T", "VL": "QPPSVSGAPGQRVTISCTGSRSNFGAGHDVHWYQQLPGTAPKLLIYGNNNRPSGVPDRFSGSKSGTSASLAITGLQAEDEADYYCQSYDSRLGVVFGGGTKLTVLG", "notes": "also called E10"}}, "key": {"Human CXCL10-His [1]": {"molecular_target": "T1, Human CXCL10-His (human, UniProt P02778 22-98)", "T1 construct": "also called hCXCL10; recombinant human CXCL10 protein; not shown: His tag (named CXCL10-His)", "T1 sequence (looked up)": "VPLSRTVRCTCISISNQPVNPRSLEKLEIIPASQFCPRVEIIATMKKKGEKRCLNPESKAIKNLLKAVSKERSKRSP", "experiment": "ELISA, IgG titrated from 50 nM on coated CXCL10", "description": "Specifically, ELISA was carried out by coating a recombinant human CXCL10 protein with a coating buffer at 100 ng per well in a 96-well immunoplate at 4° C. for 16 hours, and a reaction in each well was blocked with skim milk (4%) dissolved in PBS. 0.2 ml of PBS-Tween20 (0.05%) was added to wash each well, monoclonal antibodies were sequentially diluted from 50 nM by ½, added at 100 μl each to an antigen-coated plate, and allowed to be reacted at room temperature for 2 hours. 0.2 ml of PBS-Tween20 (0.05%) was added again to wash each well three times, and a secondary antibody, anti-human Fc-HRP, was diluted at 1:4000 and allowed to be reacted at room temperature for 50 minutes. The plate was washed with 0.2 ml of PBS-Tween20 (0.05%), and a substrate solution prepared by adding an OPD table to a PC buffer was added to the plate at 100 μl per well to allow color development for 5 minutes, followed by measuring an absorbance at 490 nm using a spectrophotometer. The ELISA result was analyzed using a Graphpad prism ver. 4 software (CA 92037: Graphpad Software Inc., USA)."}, "Human CXCL10-His [2]": {"molecular_target": "T1, Human CXCL10-His", "experiment": "phage ELISA, CXCL10/a-myc", "description": "Two types of antigens such as CXCL10 and α-myc were put into a 96-well immunoplate at 100 ng per well and coated with a coating buffer at 4° C. for 16 hours, and wells were blocked with skim milk (4%) dissolved in PBS. Each well was washed with 0.2 ml of PBS-Tween20 (0.05%), and the monoclonal scFv-phages obtained by the third panning (each 100 scFv-phage) were added at 100 μl per well, and allowed to be reacted at room temperature for 2 hours. Each well was washed again with 0.2 ml of PBS-Tween20 (0.05%) four times, and a secondary antibody, anti-M13-HRP, was diluted at 1/2000 and allowed to be reacted at room temperature for 1 hour. Each well was washed with 0.2 ml of PBS-Tween20 (0.05%) and allowed to develop a color to measure an absorbance at 490 nm."}, "Human CXCL10-His [3]": {"molecular_target": "T1, Human CXCL10-His", "experiment": "phage ELISA"}, "[4]": {"molecular_target": "T2, His (control coat of Table 2)", "T2 construct": "Not explained in the text", "experiment": "phage ELISA"}, "[5]": {"molecular_target": "T3, α-myc (anti-myc antibody coated as second antigen)", "T3 construct": "Coated at 100 ng per well beside CXCL10 in the phage ELISA; in effect a control of scFv display; also called a-myc", "experiment": "phage ELISA"}}, "note": "Where a chain is given by its changes, count along the chain named."}
{"binder": "B1", "values": [{"measurement": "Kd", "setting": "Human CXCL10-His [1]", "result": 4.7, "unit": "pM"}]}
{"binder": "B2", "values": [{"measurement": "Ratio", "setting": "Human CXCL10-His [2]", "result": 1.48}, {"measurement": "OD490", "setting": "Human CXCL10-His [3]", "result": 2.96}]}
{"binder": "B3", "values": [{"measurement": "Ratio", "setting": "Human CXCL10-His [2]", "result": 0.945}, {"measurement": "OD490", "setting": "[4]", "result": 0.178}, {"measurement": "OD490", "setting": "Human CXCL10-His [3]", "result": 2.85}]}
{"binder": "B4", "values": [{"measurement": "Ratio", "setting": "Human CXCL10-His [2]", "result": 3.4}, {"measurement": "OD490", "setting": "Human CXCL10-His [3]", "result": 3.02}]}
{"binder": "B5", "values": [{"measurement": "Ratio", "setting": "Human CXCL10-His [2]", "result": 9.95}, {"measurement": "OD490", "setting": "[4]", "result": 0.051}, {"measurement": "OD490", "setting": "Human CXCL10-His [3]", "result": 3.05}, {"measurement": "OD490", "setting": "[5]", "result": 0.307}]}
{"binder": "B6", "values": [{"measurement": "Kd", "setting": "Human CXCL10-His [1]", "result": 6.1, "unit": "pM"}]}
{"binder": "B7", "values": [{"measurement": "Kd", "setting": "Human CXCL10-His [1]", "result": 7, "unit": "pM"}]}
